# Experimental data taken from the DeepSol protein solubility set.
# Test: soluble on expression in E. coli; label from the status in PepcDB or PDB records
row,Sequence,soluble on expression in E. coli
1,MIDKVRAFIHRHQLLSEGAAVIVGVSGGPDSLALLHVFLSLRDEWKLQVIAAHVDHMFRGRESEEEMEFVKRFCVERRILCETAQIDVPAFQRSAGLGAQEAARICRYRFFAELMEKHQAGYVAVGHHGDDQVETILMRLVRGSTSKGYAGIPVKRPFHGGYLIRPFLAVSRAEIEAYCRQMGLSPRCDPSNEKDDYTRNRFRHHIVPLLRQENPRLHERFQQYSEMMAEDEQFLEELAADALNKVMEKQHRDAALSIGPFLELPRPLQRRVLQLLLLRLYGGVPPTLTSVHIGHILMLCERGRPSGMIDLPKGLKVIRSYDRCLFTFDAESGEKGYWFELPVPALLPLPNGYAIISEFGEHYPRKQAGNDWFVVDPASVSLPLRVRTRRRGDRMVLKGTGGTKKLKEIFIEAKIPRMERDRWPIVEDADGRILWVPGLKKSAFEAQNRGQARYILLQYQAMNS,soluble
2,MIDLNGQLHDVQATETLGQALAAARPVSAVVQLHGDLGAGKSTLARALLRALGVAGPIRSPTYTLVERYPLSTGDEAWHLDLYRIGHAGELDFLGLDEGSASLWLVEWPERGAGVLPPVDLDVELAVAGEGRSVRLLGRSAIGHAWMDRLSRQPQLQVLFAASREELEHHHHHH,not soluble
3,MIDMFHINIPFKKDVIIEMGDCGFVDFAKLAEKTELKIACGNVEFSVVNDQKKVRTDDLYHPWSTIPSSYTDIACKVFDAEPRANVFWGYLQLKASPAKVMQGHNVYGSEDFRLCVEYLLDSLQKAQPELWELLDVGLAEMTRIDCTYSIKCANPDILRQTIKQMGNVSNRYIKPARNSDFETTLYFNRATKANPGAGRSFELCIYTKHDEIAHQLADLKRRARQGDSDRFNRIIDELSKPELQAFAANRLRFEGRAKKRFIQKHVGSANLWQVIRHAEQFEAKNGYRFCEWMFKTLFHDLLESLKGEELELYNDSKIKQLLRDAYSTMTPKGNISYAKADRLFRFYMTLCDRGYQELKAHSSKATLHRNMRDLMAIGFSKADLQNLSEGERMPLAQVLNFNFDNQRPANYVEPVSPTALEHHHHHH,not soluble
4,MIEIIETGPFNTVQDLGRPGYRDVGVSAGGAMDPLAVKIGNILLGNFDDAAVIEVQTFPFKMRFEARAAFAVTGADGQMLLDGRELLPWCTHVAAEGQVLELKQPPQFARAYISLTGGVDVPVLMGSRSTALRGGFGGNAGRPLARGDRLKIGTVADALPLPASGIAVIEPATALRDVFAPPIEGILQIRAIPAGEHGLFASDGEAFWSQTWRISSRSDRTGYRLSGEPIKPTETIEMRSHGVVPGVVQVPPGGEPIIQMSDANTAGGYPKVAGVIECDLWRLGQARIGSRLQFVRSTHAEARVVEQAVASYLEDIRQTSHMVKRALKAMAAAALEHHHHHH,not soluble
5,MIEIKRIQQQPDLAQAIYAVMAAVYLVSPWTLEQIQADLSQDQTWYALAYDGAEVIGFLAVQENLFEAEVLQIAVKGAYQGQGIASALFAQLPTDKEIFLEVRQSNQRAQAFYKKEKMTVIAERKAYYHDPVEDAIIMKREIDEG,soluble
6,MIENIMSLQKGLPEEISALEEDLAFTSRQIEARKKIADERQKLRERLNSVIHDCKEKIKSFKEKQTLARNNKEYDALSKQIEYEEKEIAQAEIQLQDISHAEHHAQELQKKGRELIAENRYDEISEEMMPDDVLQQQMEDLGQQVRQKKEELESIVVETAEEVAQLKAVLSEQRSVVAQQAKRLLDKYDHLKSGSIQNAVVKLDRQACSGCNTRVPTNRHTLIVQGGFYVCESCGRIVVHERLFDEAAASGQQ,not soluble
7,MIFAKGHGTQNDFVLLPDVDAELVLTAARVAALCDRRKGLGADGVLRVTTAGAAQAVGVLDSLPEGVRVTDWYMDYRNADGSAAQMCGNGVRVFAHYLRASGLEVRDEFVVGSLAGPRPVTCHHVEAAYADVSVDMGKANRLGAGEAVVGGRRFHGLAVDVGNPHLACVDSQLTVDGLAALDVGAPVSFDGAQFPDGVNVEVLTAPVDGAVWMRVHERGVGETRSCGTGTVAAAVAALAAVGSPTGTLTVHVPGGEVVVTVTDATSFLRGPSVLVARGDLADDWWNAMG,not soluble
8,MIFVLDVGNTNAVLGVFEEGELRQHWRMETDRHKTEDEYGMLVKQLLEHEGLSFEDVKGIIVSSVVPPIMFALERMCEKYFKIKPLVVGPGIKTGLNIKYENPREVGADRIVNAVAGIHLYGSPLIIVDFGTATTYCYINEEKHYMGGVITPGIMISAEALYSRAAKLPRIEITKPSSVVGKNTVSAMQSGILYGYVGQVEGIVKRMKEEAKQEPKVIATGGLAKLISEESNVIDVVDPFLTLKGLYMLYERNANLQHEKGEHHHHHH,soluble
9,MIGCLCIHGFTGSPEEVAPLADYLRERTDWMIETPTLPGHGSELRLKGITYDQWIAAAEQAFLALHHRCSVVYVIGFSMGGVIAVYLAEKYPVAKLVLLSAAFYYVNPRQLWRDIREMFANGWKGAREHPLFLRYRNKMMATPFSAVREFRKLVRDVRPRLPRVAAPALIVQGEKDGIVPLKSAYYLYEQIGSAEKKLLLLPNSFHHVCHSIDRHVLFAEVETFLRAAHAHHCKSPHNMV,not soluble
10,MIGGGPGGLYFAYLWKKRHPEDQVDLFEQNPADATWGFGVVFSDQALEFLRADDPETVDAIAPHMESWENITLNLQGGSVAIDGVGFSSIGRLELLQFLQQRALDVGVTPRFDTQIHGIDQLNGHDLIVAADGLNSLVRRAYEGDFGTSLSYSSNKFVWYGTSKRFDTLSQTFVKTDRGAFNAHHYRYSPTMSTFLVECDHATWQAYGFAYKDVEQSKGVCEEVFADTLGGHCLVSNKSVWRNFPWVWNEHWSFKNMVLIGDALHSAHFSIGSGTRLAIEDAIALVKALESDAHLNTALLRYQAARKPVVQKLVDAARTSASWYENFAQHMQLDLMDFAYSYITRSGRIDDSRLRAMSPAFMARYEAAKNGGDAASEATALEHHHHHH,soluble
11,MIGNFTIVDGHVHTFSSEEVSLKVLKSFNKIYNIEFENPGTGTIEDVLNNMKNEGIDYTVMANFAPVKILHANNKWTLEEARKHPNLIPLVSFHPDMDVSFTSLLEEYISDGAKGIKLHPMAQGFDPRDERLKGLYEFCNDIAFPIVFHCGRVANARLNSFSDVETLEPLIAMYENISFVLTHMADGNVKDVLRLSRTYKNVYFDTSIVISGYPPIRETNKPSWLDDSIPEGVINEIGAHRVVFGSDYPWGSPAWDLKRFMSMKLDDEEKKNILGENAMKLFLNTAYN,soluble
12,MIGRLRGIIIEKQPPLVLIEVGGVGYEVHMPMTCFYELPEAGQEAIVFTHFVVREDAQLLYGFNNKQERTLFKELIKTNGVGPKLALAILSGMSAQQFVNAVEREEVGALVKLPGIGKKTAERLIVEMKDRFKGLHGDLFTPAADLVLTSPASPATDDAEQEAVAALVALGYKPQEASRMVSKIARPDASSETLIREALRAAL,soluble
13,MIILIRYGPIDVTYCRMKRGFMYMVAIIDWYSRYIVGFELSNTLDKTFVIEAIQKAIKRYGKPEIMNSDQGSQFTSDDYINLLKNNGIKISMDGKGRALDNQRIERFFRSYKWEKLYLEECETVQQLRQITKEYVEHYNHRRPHQSLDYKTPAEYYFGGYDQLLAVV,not soluble
14,MIIRIKHYGEVKIEDSKNLLLNLIENRIGIDNICNGKGTCGKCKVRFRQGVPEATSADLRYLSVEELEEGVRLACQVKPQKGMEIDVTLSNSFDRKNTVLEHHHHHH,not soluble
15,MIKFNIRGENVEVTDAIRAYVEDKIGKLDKYFNDGHEVTAYVNLKVYSEKRAKVEVTLPAKNVTLRAEDTSQDMYSSIDFVEEKLERQIRKYKTRMNRKPRNAVPTGQAFGDEFAPLEKADEVAEDHVDIVRTKHVALKPMDAEEAVLQMDMLGHDFYVFTDADSNGTHVVYRRTDGRYGLIETELEHHHHHH,soluble
16,MIKGGGGKSSGYSADLMVCFPSRAHLSLPSKSISSPSSSFNRRQNAPHHRRSISKLSSSGGGVRQNRGGGREVVEEPTSPKVTCAGQIKVRSSKRDGGGKNWQSLMAEIEKIHRSKSESKFFGIKRDVMGFLTCLRDFDFRCFGAFPPVDIISDDEEEDEEEEEEDEEEDEDESSGTVFSKWLMVLHEKQNNEECVDGKENVFSDVETAVPPPNALLLMRCRSAPVKNWSEEKKEETEEGDNRVKQSGEEEEEEKDRVGNKKDLRSLMEEEKKMNLVVMNYDTNYYKLSNDIAKETWVVGGIQDPLFRSRSWKK,not soluble
17,MIKKYTCKNGVRIVMENIPTVRSVAIGIWIHAGSRNENEKNNGISHFLEHMFFKGTETRSAREIAESFDSIGGQVNAFTSKEYTCYYAKVLDEHAKYALDVLADMFFNSTFDEEELKKEKNVVCEEIKMYEDAPDDIVHDMLTKATYETHPLGYPILGTEETLNTFTGDTLRQYIKDHYTPENVVVSIAGNIDEAFLQTVEQYFGSYEGTTNREQVHSPIFHFNKVARKKETEQAHLCLGYKGLQMGHEDIYNLIVLNNVLGGSMSSRLFQEVREQRGLAYSVFSYHSSYEDTGMLTLYGGTGSQQLDTLYETMQETLETLKNTGITEKELINSKEQLKGNLMLSLESTNSRMSRNGKNELLLRKHRSLDEIIESVNTVTKENVDELIRNMFTDEFSAALISPDGKLPKGIKL,not soluble
18,MIKLERETKPDYLSDEKVFELTESFKATKKSVWNHDHIKIPLLRSSHSKCAYCECPLTSASNYMEVEHFEDKNHYPEKVVLWENLLPSCKKCNGAKGQHDVIGDPIINPYVEDPKNHLSMRLYRFRAKSDKGQSTIEVTQLNSSDRSVFCRYEIGEKISEMIDLGFERWNEYLVRNNTRSKNKLVNLVQGLLNECQPTSSYSASTATNLLTDPKFIELMSLMREADIVSEELDDLILKASTLVLDYVLEHHHHHH,not soluble
19,MIKLKNVTKTYKMGEEIIYALKNVNLNIKEGEFVSIMGPSGSGKSTMLNIIGCLDKPTEGEVYIDNIKTNDLDDDELTKIRRDKIGFVFQQFNLIPLLTALENVELPLIFKYRGAMSGEERRKRALECLKMAELEERFANHKPNQLSGGQQQRVAIARALANNPPIILADEPTGALDSKTGEKIMQLLKKLNEEDGKTVVVVTHDINVARFGERIIYLKDGEVEREEKLRGFDDR,soluble
20,MIKLVAFDLDGTIGNTLPMCIQAFKKATQPYIGHELSDEEMVHTFGLNEEGMIGCVVDEPYRQQALNDFYVIYKELHQEMCPTPFEGIRELIALLKQKGIIVALITGKGINSCDITLKQFNMKDSFAKVITGNAERNIKSEALKELLHDYHLAANEIVYVGDALSDITECRKANVMCLSAAWSIPQNEVTALENSNPKNVFYSISSLFKYL,not soluble
21,MIKMIVVLRLGHRPERDKRVTTHVALTARAFGADGIIIASEEDEKVKESVEDVVKRWGGPFFIEFNRNWRKVMKEFTGVKVHLTMYGLHVDDVIEELKEKLKKGEDFMIIVGAEKVPREVYELADYNVAIGNQPHSEVAALAVLLDRLLEGKGLKKEFKGAKIKIVPQARGKKVVEVQGYAEQDKAEGKATPGKNWENSGFTGDNP,soluble
22,MIKQTIVALLLSVGASSVFAAGTVKVFSNGSSEAKTLTGAEHLIDLVGQPRLANSWWPGAVISEELATAAALRQQQALLTRLAEQGADSSADDAAAINALRQQIQALKVTGRQKINLDPDIVRVAERGNPPLQGNYTLWVGPPPSTVTLFGLISRPGKQPFTPGRDVASYLSDQSLLSGADRSYAWVVYPDGRTQKAPVAYWNKRHVEPMPGSIIYVGLADSVWSETPDALNADILQTLTQRIPQ,not soluble
